Results on one substance are retold here after article PMC9886945.

The target of assay [1] is Mtb RNAP holoenzyme with σ^B in which residues 252-323 (subregion 4.2) are deleted (M. tuberculosis) (UniProt P9WGZ1). The assay is described as follows: negative stain EM.
Assay [2] has the same target. The experiment in a line: SEC. On the technique in general: Size exclusion chromatography separates by hydrodynamic size, large species first.

A word on the stoichiometry N: it is a count of units in the complex or per binding partner. With “Mtb RNAP holoenzyme with σ^B in which residues 252-323 (subregion 4.2) are deleted, P9WGZ1;P9WGY9;P9WGY7;P9WGY5;P9WGI5”, the stoichiometry N in assay [1] and in assay [2] was 8 each time.
